# Source: patent US20040087783
# B1: N-terminal hexahistidine tagged SAD (protein)
# chain: MRGSHHHHHHEPFLRRRLAFLSFFWDKIWPAGGEPDHGTPGSLDPNTDPVPTLPAEPCSPFPQLFLALYDFTARCGGELSVRRGDRLCALEEGGGYIFARRLSGQPSAGLVPITHVAKASPETLSDQPWYFSGVSRTQAQQLLLSPPNEPGAFLIRPSESSLGGYSLSVRAQAKVCHYRVSMAADGSLYLQKGRLFPGLEELLTYYKANWKLIQNPLLQPCMPQKAPRQDVWERPHSEFALGRKLGEGYFGEVWEGLWLGSLPVAIKVIKSANMKLTDLAKEIQTLKGLRHERLIRLHAVCSGGEPVYIVTELMRKGNLQAFLGTPEGRALRLPPLLGFACQVAEGMSYLEEQRVVHRDLAARNVLVDDGLACKVADFGLARLLKDDIYSPSSSSKIPVKWTAPEAANYRVFSQKSDVWSFGVLLHEVFTYGQCPYEGMTNHETLQQIMRGYRLPRPAACPAEVYVLMLECWRSSPEERPSFATLREKLHAIHRCHP
# Molecular target: denatured enolase
protein,measurement,value
B1,"phosphorylation of substrate, in vitro kinase assay with 32P-ATP, autoradiography",SAD was able to phosphorylate both denatured enolase and poly-Glu-Tyr in vitro
